From patent US20190177423A1

Tests used:
[1] = target: FcγRIIIa(V158) (Sino Biological Inc, 10389-H08C1) (UniProt P08637); assay: Binding ELISA on FcγRIIIa(V158); relative to MIL62 as 100%
[2] = target: FcγRIIIa(V158) (Sino Biological Inc, 10389-H08C1) (UniProt P08637); assay: Binding ELISA: FcγRIIIa captured on anti-His coated plate; IgG pre-complexed with goat F(ab')2 anti-human-κ (1:2 w/w); HRP anti-human IgG F(ab')2 detection

FcγRIIIa(V158) (Sino Biological Inc, 10389-H08C1), sequence (P08637 17-208 F176V): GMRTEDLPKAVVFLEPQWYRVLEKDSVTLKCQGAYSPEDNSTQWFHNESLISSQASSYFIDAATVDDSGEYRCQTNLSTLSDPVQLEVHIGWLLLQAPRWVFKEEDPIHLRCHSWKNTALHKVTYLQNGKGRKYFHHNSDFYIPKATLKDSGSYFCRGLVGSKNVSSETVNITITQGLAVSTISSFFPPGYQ

Relative Bioactivity (%) [1]: 26.8%
EC50 [2]: 0.194 µg/mL
Substance: RITUXAN (rituximab) (antibody)
